Assays:
[1] = biological target: HLA-A2/WT1-S11 peptide on T2 cells (human); assay: FACS, T2 cells loaded with WT1-S11 [..] (heteroclitic pep.), anti-human PE
[2] = biological target: HLA-A2/WT1-S6 peptide on T2 cells (human); assay: FACS, T2 cells loaded with WT1-S6 [..], anti-human PE
Unloaded T2 (human) = assay: FACS, unloaded T2 cells, anti-human PE
[3] = biological target: HLA-A2/WT1-S10 peptide on T2 cells (human); assay: FACS, T2 cells loaded with WT1-S10 [..], anti-human PE
[4] = biological target: HLA-A2/WT1-S7 peptide on T2 cells (human); assay: FACS, T2 cells loaded with WT1-S7 [..], anti-human PE
[5] = biological target: HLA-A2/PAP 112-120 peptide complex on cells (human); assay: FACS, T2 cells loaded with PAP112, anti-human PE
[6] = biological target: HLA-A2/WT1-S13 peptide on T2 cells (human); assay: FACS, T2 cells loaded with WT1-S13 [..], anti-human PE
[7] = biological target: HLA-A2/WT1-S16 peptide on T2 cells (human); assay: FACS, T2 cells loaded with WT1-S16 [..], anti-human PE
[8] = biological target: HLA-A2 positive, antigen negative cells; assay: FACS, JVM-2 cells (lymphoblast, WT1 mRNA -)
[9] = biological target: HLA-A2 positive, antigen negative cells; assay: FACS, IM-9 cells (multiple myeloma, WT1 mRNA -)
[10] = biological target: HLA-A2/WT1 126-134 peptide complex on cells (human); assay: FACS, T2 cells loaded with WT1 peptide 1x10e-4M, anti-human PE
[11] = biological target: HLA-A2/WT1 126-134 peptide complex on cells (human); assay: FACS, T2 cells loaded with 10^-4M WT1 peptide
[12] = biological target: HLA-A2/Tyrosinase 369-377 peptide complex on cells (human); assay: FACS, T2 cells loaded with TyrD [..], anti-human PE
[13] = biological target: HLA-A2 positive, antigen negative cells; assay: FACS, A498 cells (printed: non-small cell lung adenocarcinoma, WT1 mRNA -)
[14] = biological target: HLA-A2/WT1 126-134 peptide complex on cells (human); assay: FACS, SET-2 cells (essential thrombocythemia, WT1 mRNA +)
[15] = biological target: HLA-A2/WT1 126-134 peptide complex on cells (human); assay: FACS, T2 cells loaded with WT1 1x10e-4M in DMSO, anti-human PE
[16] = biological target: HLA-A2 positive, antigen negative cells; assay: FACS, SKMEL-5 cells (melanoma, WT1 mRNA -)
[17] = biological target: HLA-A2/MAGE-A4 230-239 peptide complex on cells (human); assay: FACS, T2 cells loaded with MAGE-A4 [..], anti-human PE
[18] = biological target: HLA-A2 positive, antigen negative cells; assay: FACS, U266 cells (multiple myeloma, WT1 mRNA -)
[19] = biological target: HLA-A2/WT1 126-134 peptide complex on cells (human); assay: FACS, T2 cells loaded with WT1 peptide 1x10e-5M, anti-human PE
[20] = biological target: HLA-A2/WT1-S22 peptide on T2 cells (human); assay: FACS, T2 cells loaded with WT1-S22 [..], anti-human PE
[21] = biological target: HLA-A2 positive, antigen negative cells; assay: FACS, 501A cells (melanoma, WT1 mRNA -)
[22] = biological target: HLA-A2/WT1 126-134 peptide complex on cells (human); assay: FACS, BV173 cells (B cell precursor leukemia, WT1 mRNA +)
[23] = biological target: HLA-A2/MAGE-A9 223-231 peptide complex on cells (human); assay: FACS, T2 cells loaded with MAGE-A9 [..], anti-human PE

MFI [1]: 1.1
MFI [2]: 5
MFI (Unloaded T2 (human)): 1
MFI [3]: 1.4
MFI [4]: 3.1
MFI [5]: 1.1
MFI [6]: 1.1
MFI [7]: 1.1
MFI [8]: 1
MFI [9]: 1.2
MFI [10]: 17.9
MFI [11]: 18
MFI [12]: 1
MFI [13]: 5.2
MFI [14]: 26.3
MFI [15]: 17.9
MFI [16]: 4.3
MFI [17]: 1.1
MFI [18]: 1.9
MFI [19]: 1.6
MFI [20]: 1.1
MFI [21]: 10.7
MFI [22]: 8.1
MFI [23]: 1
Substance: ESK1 TCR-like antibody

Reference: patent US20180179283A1
